Assay results as given in US20110081661A1, “Modified photoproteins with increased affinity for calcium and enhanced bioluminescence and uses thereof” (Millipore Corporation, priority 2009, published 2011).
Positions count from the first letter of the chain named. Numbers in names are those of the source.

T1: GIP Receptor (Homo sapiens, UniProt P48546)
T1 construct: host or cells: HEK293T
T1 sequence (P48546 22-466): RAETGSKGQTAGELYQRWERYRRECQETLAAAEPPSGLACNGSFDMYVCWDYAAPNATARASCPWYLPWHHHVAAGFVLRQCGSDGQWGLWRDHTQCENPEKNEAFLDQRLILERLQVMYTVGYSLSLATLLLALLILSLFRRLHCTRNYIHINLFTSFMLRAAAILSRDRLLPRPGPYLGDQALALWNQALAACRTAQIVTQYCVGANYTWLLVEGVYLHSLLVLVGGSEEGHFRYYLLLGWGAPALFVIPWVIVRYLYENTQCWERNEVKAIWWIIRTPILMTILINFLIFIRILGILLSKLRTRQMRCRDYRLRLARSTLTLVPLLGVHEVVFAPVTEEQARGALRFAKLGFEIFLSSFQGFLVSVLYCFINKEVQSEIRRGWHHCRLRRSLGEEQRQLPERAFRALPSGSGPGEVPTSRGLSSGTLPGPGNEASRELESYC

B1: Mt-obelin: Mitochondrial Wild-type Obelin (mt-Obelin), SEQ ID NO:7 (protein, listed as Obelia longissima)
chain: MSVLTPLLLRGLTGSARRLPVPRAKIHSLPPEGKLMSSKYAVKLKTDFDNPRWIKRHKHMFDFLDINGNGKITLDEIVSKASDDICAKLEATPEQTKRHQVCVEAFFRGCGMEYGKEIAFPQFLDGWKQLATSELKKWARNEPTLIREWGDAVFDIFDKDGSGTITLDEWKAYGKISGISPSQEDCEATFRHCDLDNSGDLDVDEMTRQHLGFWYTLDPEADGLYGNGVP
B2: Cyto-clytin K168E: K168E modified Clytin amino acid sequence, SEQ ID NO:11; cytosolic (protein)
chain: MADTASKYAVKLRPNFDNPKWVNRHKFMFNFLDINGDGKITLDEIVSKASDDICAKLGATPEQTKRHQDAVEAFFKKIGMDYGKEVEFPAFVDGWKELANYDLKLWSQNKKSLIRDWGEAVFDIFDKDGSGSISLDEWKAYGRISGICSSDEDAEKTFKHCDLDNSGELDVDEMTRQHLGFWYTLDPNADGLYGNFVP
B3: Mt-clytin K168S: Mitochondrial K168S modified Clytin, SEQ ID NO:22 (protein)
chain: MSVLTPLLLRGLTGSARRLPVPRAKIHSLPPEGKLRPNFDNPKWVNRHKFMFNFLDINGDGKITLDEIVSKASDDICAKLGATPEQTKRHQDAVEAFFKKIGMDYGKEVEFPAFVDGWKELANYDLKLWSQNKKSLIRDWGEAVFDIFDKDGSGSISLDEWKAYGRISGICSSDEDAEKTFKHCDLDNSGSLDVDEMTRQHLGFWYTLDPNADGLYGNFVP
B4: Mt-clytin K168G: Mitochondrial K168G modified Clytin, SEQ ID NO:16 (protein)
chain: B3 chain with S191G
B5: Mt-clytin K168N: Mitochondrial K168N modified Clytin, SEQ ID NO:18 (protein)
chain: B3 chain with S191N
B6: Mt-clytin K168Y: Mitochondrial K168Y modified Clytin, SEQ ID NO:28 (protein)
chain: B3 chain with S191Y
B7: Mt-clytin K168T: Mitochondrial K168T modified Clytin, SEQ ID NO:24 (protein)
chain: B3 chain with S191T
B8: Mt-clytin K168V: Mitochondrial K168V modified Clytin, SEQ ID NO:26 (protein)
chain: B3 chain with S191V
B9: Mt-clytin K168R: Mitochondrial K168R modified Clytin, SEQ ID NO:30 (protein)
chain: B3 chain with S191R
B10: Mt-clytin K168Q: Mitochondrial K168Q modified Clytin, SEQ ID NO:20 (protein)
chain: B3 chain with S191Q
B11: Mt-clytin K168H: Mitochondrial K168H modified Clytin, SEQ ID NO:14 (protein)
chain: B3 chain with S191H
B12: Cyto-obelin: Wild-type Obelin (wt-Obelin) amino acid sequence, SEQ ID NO:4; cytosolic (protein, listed as Obelia longissima)
chain: MSSKYAVKLKTDFDNPRWIKRHKHMFDFLDINGNGKITLDEIVSKASDDICAKLEATPEQTKRHQVCVEAFFRGCGMEYGKEIAFPQFLDGWKQLATSELKKWARNEPTLIREWGDAVFDIFDKDGSGTITLDEWKAYGKISGISPSQEDCEATFRHCDLDNSGDLDVDEMTRQHLGFWYTLDPEADGLYGNGVP
B13: K168T (protein)
chain: B2 chain with E168T
B14: wild-type Clytin (protein, listed as Clytia gregaria)
chain: B2 chain with E168K
B15: K168G (protein)
chain: B2 chain with E168G
B16: K168S (protein)
chain: B2 chain with E168S
B17: K168E (protein)
chain: B2 chain

Target: T1, GIP Receptor
Experiment: GIP receptor-mediated bioluminescence in HEK293T cells with chimeric promiscuous G protein (FIG. 5, Table II)
Format: cell-based
Conditions: HEK293T cells, GIP Receptor + promiscuous G protein
Description: However, coexpression of GIP receptor with a chimeric G protein containing sequences from Gαs and Gαq enable the GIP receptor to stimulate calcium flux.
The results of the dose response curve to varying concentrations of GIP with a subset of the photoproteins are summarized in FIG. 5.
(§1) Signal to background ratio was calculated as the signal induced by maximal GIP (1 μM) divided by the signal induced by buffer alone. The EC50 value for calcium was determined as described above for FIG. 2 for mitochondrially targeted photoproteins transfected into HEK293T cells in the absence of a cotransfected GPCR or G protein. Affinity for calcium was correlated with the properties of the amino acid side chain at residue 168 of Clytin.
The EC50 value for receptor-mediated calcium flux induced by the ligand was determined by plotting luminescence (Y-axis) versus ligand concentration applied to the cells (X-axis), and applying a sigmoidal dose-response curve-fitting algorithm (GraphPad Prism). GPCR-mediated signals of the various modified forms of Clytin having an amino acid substitution at position 168 were also related to the nature of the side chain. In addition, the subcellular location of the photoproteins (cytosolic vs mitochondrial) appeared to have an effect on GPCR-mediated signals. […] All of the other mitochondrially targeted mutants except for Clytin K168R and wild-type Clytin yielded results that were in the range of those observed for wt-Aequorin.

Row | Max signal with GIP (RLU × 10^−5) | Molecule
1 | 3.66 | B1
2 | 6.47 | B2
3 | 3.84 | B3
4 | 5.09 | B4
5 | 3.82 | B5
6 | 2.89 | B6
7 | 4.26 | B7
8 | 3.60 | B8
9 | 1.89 | B9
10 | 4.78 | B10
11 | 4.98 | B11
12 | 1.80 | B12

Same assay, conditions: HEK293T cells, GIP Receptor + promiscuous G protein; luminescence vs GIP concentration

Row | EC50 [nM] | Molecule
13 | 13.7 | B1
14 | 7.9 | B2
15 | 15.4 | B3
16 | 15.1 | B4
17 | 21 | B5
18 | 16.4 | B6
19 | 13.4 | B7
20 | 16.8 | B8
21 | 29.1 | B9
22 | 17.4 | B10
23 | 19.2 | B11
24 | 9.86 | B12

Same assay, conditions: signal induced by maximal GIP (1 μM) as percentage of signal induced by Triton X-100 with 1 mM Ca^2+

Row | % GPCR/total [%] | Molecule
25 | 116 | B1
26 | 26.2 | B2
27 | 20.3 | B3
28 | 19.3 | B4
29 | 10.7 | B5
30 | 18.5 | B6
31 | 22 | B7
32 | 18.5 | B8
33 | 3.3 | B9
34 | 14.2 | B10
35 | 14.9 | B11
36 | 56.7 | B12

Same assay, conditions: signal induced by maximal GIP (1 μM) divided by signal induced by buffer alone

Row | Signal: background with GIP | Molecule
37 | 172.5 | B1
38 | 66.4 | B2
39 | 124.1 | B3
40 | 146.8 | B4
41 | 115.9 | B5
42 | 112.8 | B6
43 | 113.4 | B7
44 | 158.0 | B8
45 | 86.8 | B9
46 | 125.8 | B10
47 | 148.3 | B11
48 | 47 | B12

Tested on: not listed separately
Experiment: Calcium EC50 of mitochondrially targeted photoproteins in HEK293T cells without cotransfected GPCR or G protein (Table II)
Format: cell-based
Conditions: no cotransfected GPCR or G protein
Source text: In an exemplary experiment, HEK293T cells (ATCC-CRL-11268) were transiently co-transfected with 2 μgs of each of pcDNA3.1-H1 (containing the cDNA encoding the H1 histamine receptor) and pcDNA3.1 containing the cDNAs encoding wild type mitochondrial Clytin (referred to as mt-Clytin), modified mitochondrial Clytin having a lysine to aspartic acid mutation at position 168 (referred to as mt-Clytin K168D), modified mitochondrial Clytin having a lysine to glutamic acid mutation at position 168 (referred to as mt-Clytin K168E), wild-type mitochondrial Obelin (referred to as mt-Obelin) or wild type mitochondrial Aequorin (referred to as mt-Aequorin) using the Targefect-293 reagent (TARGETING SYSTEMS). 48 hours later, the cells were detached using Accutase (MILLIPORE), centrifuged, and resuspended in […] in FreeStyle293 media (INVITROGEN), for incubation for 3-4 hours at room temperature in the dark. After incubation, the cells were centrifuged and resuspended in HBSS/HEPES buffer without Ca^2+ at a density of 1×10^6 cells/ml. Next, 100 μl/well of cell suspension for each transfection were added by the use of a Victor2 luminometer plate reader (WALLAC, […]), to a 96-well plate containing 50 μL/well Triton X-100 in MOPS/KCl buffer containing 10 mM EGTA and a series of Ca^2+ concentrations, such that free calcium concentrations ranged from 17 nM to 39.6 μM, followed by for measurement of total bioluminescence at 20 seconds.
as §1

Row | EC50 [nM] | Molecule | Calcium EC50 (nM)
49 | 373 | B1 | –
50 | 174 | B13 | –
51 | 545 | B14 | –
52 | – | B15 | calcium affinities comparable to wild-type Aequorin, however, better than wt-Clytin
53 | – | B16 | calcium affinities comparable to wild-type Aequorin, however, better than wt-Clytin
54 | 176 | B17 | –
55 | 228 | B3 | –
56 | 232 | B4 | –
57 | 358 | B5 | –
58 | 284 | B6 | –
59 | 174 | B7 | –
60 | 389 | B8 | –
61 | 581 | B9 | –
62 | 335 | B10 | –
63 | 459 | B11 | –
